Test results published in the supplement of paper PMC10126150.
± gives the standard deviation of the averaged measurements.

Tested on: ATP
Test: switch fluorescence ratio, 500 uM ATP over buffer (Cy3 cluster intensity, sum of 5 cycles each) (fold (ratio)); higher = stronger signal-on switching upon ATP binding; sequences stand for … in TCGTCGGCAGCGTCAGATGTGTATAAGAGACAGTTTTTTTTTTTTTTTTTTTTTTTTT…TC
Details: aptamer strand: ATP DNA aptamer (quencher-CACCTGGGGGAGTATTGCGGAGGAAGG + anchor), 100 nM annealed; ATP concentration: 500 uM
In short: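 Clusters with intensities outside 100-1000 RFU were excluded. The remaining Cy3-labelled switching-strand clusters on a modified Illumina MiSeq flow-cell had been annealed to 100 nM quencher-labelled ATP aptamer and imaged in selection buffer, then after 15 min with 500 uM ATP at 22 °C, for five cycles separated by NaOH stripping and re-annealing. The fluorescence ratio, averaged per switch-domain sequence, is each cluster's summed target-cycle Cy3 intensity over its summed buffer-cycle Cy3 intensity.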
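Further: ATP exposure 15 min at 22 °C before imaging.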

Row | Sequence | switch fluorescence ratio
1 | AAAAAAAGCA | 1.04 ± 0.05
2 | AAAAAAAGGT | 1.021 ± 0.01
3 | AAAAAAATCC | 1.01 ± 0.07
4 | AAAAAAATTC | 1.05 ± 0.079
5 | AAAAAACCTA | 1.063 ± 0.008
6 | AAAAAACGCT | 1.08 ± 0.061
7 | AAAAAAGTGG | 1.02 ± 0.026
8 | AAAAAATAGG | 1.01 ± 0.028
9 | AAAAAATAGT | 1 ± 0.019
10 | AAAAAATGCT | 1.01 ± 0.014
11 | AAAAAATTCG | 1.03 ± 0.017
12 | AAAAACAGGT | 1.02 ± 0.013
13 | AAAAAGCTGA | 0.973 ± 0.055
14 | AAAAAGGATT | 1 ± 0.02
15 | AAAAAGGTGG | 1.06 ± 0.047
16 | AAAAAGGTTT | 0.978 ± 0.037
17 | AAAAAGTTAG | 0.998 ± 0.023
18 | AAAAATAAGC | 1.03 ± 0.072
19 | AAAAATATGC | 0.996 ± 0.017
20 | AAAAATCTGG | 1.45 ± 0.67
21 | AAAAATGCGG | 1.01 ± 0.077
22 | AAAAATGGTG | 0.981 ± 0.033
23 | AAAAATGTGT | 0.971 ± 0.01
24 | AAAAATTAAT | 0.979 ± 0.023
25 | AAAAATTTCG | 1.05 ± 0.063

Row | Sequence | switch fluorescence ratio
26 | AAAAATTTGT | 0.993 ± 0.05
27 | AAAAATTTTT | 0.995 ± 0.052
28 | AAAACAAACT | 1.26 ± 0.38
29 | AAAACAGGAT | 0.9954 ± 0.0095
30 | AAAACATAGC | 0.965 ± 0.056
31 | AAAACCGCGA | 1.59 ± 0.28
32 | AAAACGAGAT | 1.05 ± 0.039
33 | AAAACGAGTC | 1.07 ± 0.031
34 | AAAACGCGCT | 0.965 ± 0.079
35 | AAAACGGAAC | 1.05 ± 0.028
36 | AAAACTTTGA | 1 ± 0.017
37 | AAAAGACGGT | 1.015 ± 0.0016
38 | AAAAGATATT | 0.996 ± 0.049
39 | AAAAGATTGG | 0.969 ± 0.011
40 | AAAAGCAGCG | 1.03 ± 0.05
41 | AAAAGCAGTT | 1.028 ± 0.004
42 | AAAAGCGCT | 0.999 ± 0.025
43 | AAAAGCGTAG | 1.01 ± 0.015
44 | AAAAGCGTTA | 0.9962 ± 0.009
45 | AAAAGCTACT | 1.06 ± 0.053
46 | AAAAGCTCGT | 1 ± 0.05
47 | AAAAGCTTAT | 1.05 ± 0.03
48 | AAAAGCTTTT | 0.988 ± 0.034
49 | AAAAGGAAT | 1.001 ± 0.009
50 | AAAAGGACGT | 0.962 ± 0.0056

Row | Sequence | switch fluorescence ratio
51 | AAAAGGGGAA | 1.02 ± 0.025
52 | AAAAGGGGAG | 1.14 ± 0.16
53 | AAAAGGGGAT | 0.997 ± 0.036
54 | AAAAGGGGTG | 1.09 ± 0.025
55 | AAAAGGTGCC | 1.13 ± 0.024
56 | AAAAGGTTAC | 1.06 ± 0.033
57 | AAAAGGTTAG | 1.0185 ± 0.00083
58 | AAAAGGTTGT | 0.999 ± 0.038
59 | AAAAGTGAAA | 1.14 ± 0.2
60 | AAAAGTTATT | 0.986 ± 0.027
61 | AAAAGTTCTG | 1.01 ± 0.057
62 | AAAAGTTTTC | 0.975 ± 0.0098
63 | AAAATAAGGT | 0.969 ± 0.043
64 | AAAATACGGG | 1.21 ± 0.21
65 | AAAATACGTT | 1.23 ± 0.16
66 | AAAATAGAGC | 1.05 ± 0.062
67 | AAAATAGGGA | 0.989 ± 0.024
68 | AAAATATACA | 1.01 ± 0.027
69 | AAAATATGGG | 0.987 ± 0.031
70 | AAAATCACGG | 1.14 ± 0.1
71 | AAAATCGAAA | 0.99 ± 0.015
72 | AAAATCTAAT | 1.01 ± 0.054
73 | AAAATCTTAG | 1 ± 0.036
74 | AAAATGAACG | 1.08 ± 0.047
75 | AAAATGACGT | 1.04 ± 0.049

Row | Sequence | switch fluorescence ratio
76 | AAAATGCATC | 1.04 ± 0.038
77 | AAAATGCGGG | 1.01 ± 0.036
78 | AAAATGGAGA | 0.983 ± 0.029
79 | AAAATGGGCA | 1.02 ± 0.024
80 | AAAATGGGTA | 0.986 ± 0.034
81 | AAAATGGTGC | 1.06 ± 0.065
82 | AAAATGTAAG | 1.011 ± 0.0057
83 | AAAATGTAGG | 0.957 ± 0.03
84 | AAAATGTGGG | 0.987 ± 0.041
85 | AAAATTAGTT | 1.03 ± 0.012
86 | AAAATTGTGT | 1.01 ± 0.015
87 | AAAATTGTTT | 1.01 ± 0.031
88 | AAAATTTTTT | 1.07 ± 0.19
89 | AAACACTGGG | 0.9638 ± 0.0073
90 | AAACAGCTTA | 1.05 ± 0.056
91 | AAACATAGTG | 0.987 ± 0.052
92 | AAACCCGGGA | 1.04 ± 0.058
93 | AAACGCCTTA | 1.03 ± 0.015
94 | AAACGGCGTT | 0.9725 ± 0.0013
95 | AAACGGGCTA | 1.03 ± 0.039
96 | AAACGGGGGT | 0.991 ± 0.0073
97 | AAACGTCTGA | 0.9936 ± 0.0016
98 | AAACGTGGGG | 1.01 ± 0.066
99 | AAACGTTAGA | 1.03 ± 0.0082
100 | AAACTAACTT | 1.01 ± 0.046

Row | Sequence | switch fluorescence ratio
101 | AAACTAGCGC | 0.981 ± 0.015
102 | AAACTAGGGG | 1.06 ± 0.016
103 | AAACTAGGGT | 0.9975 ± 0.0077
104 | AAACTGAAAT | 1.76 ± 1.1
105 | AAACTGAATC | 1 ± 0.094
106 | AAACTGATGA | 1.06 ± 0.024
107 | AAACTGCTCG | 1.04 ± 0.064
108 | AAACTGGGGG | 1.012 ± 0.0032
109 | AAACTTATAA | 0.991 ± 0.029
110 | AAACTTGGCA | 1.017 ± 0.0088
111 | AAAGAACACG | 1.05 ± 0.1
112 | AAAGAACACT | 1.06 ± 0.037
113 | AAAGAACGGA | 1.06 ± 0.095
114 | AAAGAAGAGA | 1.021 ± 0.0069
115 | AAAGAAGGTG | 1.06 ± 0.12
116 | AAAGAATGGG | 0.978 ± 0.017
117 | AAAGACATGG | 0.989 ± 0.017
118 | AAAGAGCCTT | 1.13 ± 0.2
119 | AAAGAGCGTA | 1 ± 0.029
120 | AAAGAGTAAT | 1.006 ± 0.0045
121 | AAAGAGTAGT | 0.962 ± 0.014
122 | AAAGAGTATA | 0.9972 ± 0.0036
123 | AAAGAGTTGG | 0.99 ± 0.047
124 | AAAGATAATG | 1.003 ± 0.0091
125 | AAAGATGTCG | 1.07 ± 0.044

Row | Sequence | switch fluorescence ratio
126 | AAAGCAGTTT | 1.05 ± 0.022
127 | AAAGCCGGTG | 1.022 ± 0.00024
128 | AAAGCCGTTT | 1.2 ± 0.27
129 | AAAGCTATAT | 1.12 ± 0.011
130 | AAAGCTGCCA | 1.004 ± 0.0056
131 | AAAGGAAAAC | 1 ± 0.022
132 | AAAGGAACAG | 1.03 ± 0.017
133 | AAAGGAAGAT | 0.993 ± 0.055
134 | AAAGGATAAG | 0.993 ± 0.038
135 | AAAGGATATC | 1.036 ± 0.0028
136 | AAAGGATGGG | 1 ± 0.016
137 | AAAGGATTTA | 1.02 ± 0.061
138 | AAAGGCATTC | 1.05 ± 0.025
139 | AAAGGGAACA | 1.01 ± 0.019
140 | AAAGGGAGAA | 0.971 ± 0.011
141 | AAAGGGCATC | 1.01 ± 0.058
142 | AAAGGGGAAC | 1.03 ± 0.028
143 | AAAGGGGATC | 0.998 ± 0.017
144 | AAAGGGGCTG | 0.98 ± 0.061
145 | AAAGGGGGGA | 0.995 ± 0.029
146 | AAAGGGTATC | 0.9956 ± 0.0092
147 | AAAGGGTGTG | 1 ± 0.019
148 | AAAGGGTTAG | 1 ± 0.028
149 | AAAGGGTTCT | 0.994 ± 0.04
150 | AAAGGGTTGA | 0.9559 ± 0.0011

Row | Sequence | switch fluorescence ratio
151 | AAAGGGTTTG | 1.01 ± 0.033
152 | AAAGGTCCGC | 1.18 ± 0.051
153 | AAAGGTCGAT | 0.986 ± 0.022
154 | AAAGGTGATG | 0.978 ± 0.04
155 | AAAGGTTGAT | 1.01 ± 0.011
156 | AAAGTATCTT | 1.02 ± 0.037
157 | AAAGTATTTC | 1.02 ± 0.015
158 | AAAGTCAGTA | 0.9818 ± 0.007
159 | AAAGTCATGG | 0.948 ± 0.013
160 | AAAGTCCTA | 0.982 ± 0.015
161 | AAAGTCGTTC | 0.977 ± 0.028
162 | AAAGTGGGGT | 1 ± 0.018
163 | AAAGTGGTGT | 0.9845 ± 0.0018
164 | AAAGTTCGAA | 0.977 ± 0.035
165 | AAAGTTCGAG | 0.99 ± 0.021
166 | AAAGTTCGGC | 1.06 ± 0.024
167 | AAAGTTTATG | 1.007 ± 0.0053
168 | AAAGTTTCTC | 1 ± 0.032
169 | AAAGTTTGG | 0.977 ± 0.017
170 | AAAGTTTTAT | 0.984 ± 0.025
171 | AAAGTTTTTT | 1.19 ± 0.39
172 | AAATAAACGC | 1.025 ± 0.0031
173 | AAATAATTAG | 1.01 ± 0.016
174 | AAATACCCAG | 1.04 ± 0.034
175 | AAATAGAAAT | 0.96 ± 0.011

Row | Sequence | switch fluorescence ratio
176 | AAATAGATCG | 1.05 ± 0.066
177 | AAATAGTGCC | 1.036 ± 0.0029
178 | AAATATGAGC | 0.993 ± 0.033
179 | AAATATTTAC | 1.12 ± 0.11
180 | AAATCAAGTG | 0.97516 ± 1.6e-05
181 | AAATCCGCG | 1.28 ± 0.031
182 | AAATCCGGTT | 1.008 ± 0.0028
183 | AAATCGGTGG | 1.01 ± 0.046
184 | AAATCGTATG | 0.974 ± 0.034
185 | AAATCGTCCA | 0.992 ± 0.057
186 | AAATCTCTTT | 1 ± 0.014
187 | AAATCTGTAG | 0.9849 ± 0.002
188 | AAATGAAAAA | 0.99 ± 0.091
189 | AAATGATAGC | 1.016 ± 0.0037
190 | AAATGATCCG | 1.08 ± 0.063
191 | AAATGCAGCT | 0.977 ± 0.016
192 | AAATGCGGCC | 1 ± 0.067
193 | AAATGCTACT | 1.02 ± 0.028
194 | AAATGCTGGG | 0.99 ± 0.031
195 | AAATGGAGGG | 1.01 ± 0.044
196 | AAATGGCTGG | 0.9982 ± 0.0091
197 | AAATGGGAGG | 0.996 ± 0.032
198 | AAATGGGGGA | 0.991 ± 0.04
199 | AAATGGTCGA | 0.974 ± 0.01
200 | AAATGGTCGG | 0.974 ± 0.017
